Experiments:
[1] = biological target: human PD-1 (cell surface) (human) (UniProt Q15116)
[2] = biological target: human PD-1 (cell surface) (human) (UniProt Q15116); test: column 'Affinity (nM)'; per the footnote of Table 2, FACS staining of cell surface PD-1 on activated CD4 T cells
[3] = biological target: human PD-1 (cell surface) (human) (UniProt Q15116); test: column 'Affinity (nM)'; per the footnote of Table 2, FACS staining of cell surface PD-1 on activated CD4 T cells (Table 5 prints 0.6 for MK3575)

human PD-1 (cell surface) (human), sequence (Q15116 25-288 limits assumed): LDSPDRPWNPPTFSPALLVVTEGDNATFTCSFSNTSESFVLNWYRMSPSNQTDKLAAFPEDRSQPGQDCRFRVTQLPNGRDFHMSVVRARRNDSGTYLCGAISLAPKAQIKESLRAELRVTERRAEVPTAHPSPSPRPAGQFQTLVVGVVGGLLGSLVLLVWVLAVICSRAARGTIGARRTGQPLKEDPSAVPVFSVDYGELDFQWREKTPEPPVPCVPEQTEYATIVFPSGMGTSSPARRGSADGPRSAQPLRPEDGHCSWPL

EFRA, column 'Functional effect: % CFSE low CD8 T cells' [1] [%]	Affinity [2] [nM]	Affinity [3] [nM]	Substance
175	0.6		BMS-5C4 (antibody)
100			IgG1 control (antibody)
		0.5	MK-3475 (pembrolizumab) (antibody)
